Source: patent US20250339531A1, “DUX4 POLYPEPTIDES AND NUCLEIC ACIDS FOR TREATING INFLAMMATORY AND AUTOIMMUNE CONDITIONS” (Fred Hutchinson Cancer Center, priority 2021, published 2025)

System: proteins that co-immunoprecipitated with DUX4-CTD constructs expressed in MB135 myoblasts
Assay: LC-MS of proteins co-immunoprecipitated with DUX4-CTD (Table 1) and western validation
Type: binding, human
Set-up: key to 4. mL1dL2 + Dox + IFNG / 4. + IFNG mix / 4. longCTD + Dox + IFNG / 3. + IFNg + Dox longCTD / 3. + Dox longCTD / 3. + IFNG longCTD: peptide-spectrum matches (PSMs) per protein
Conditions: for 3. + IFNg + Dox longCTD: experiment 3, IFNg + Dox; for SUM of PSMS: sum over all samples
Summary of the method: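 Two independent experiments compared uninduced, doxycycline and doxycycline+IFNG MB135iDUX4-CTD (plus MB135iDUX4mL1dL2) myoblasts. Anti-FLAG pulldowns (3 h, 4 °C) were eluted in LDS buffer for western validation or with FLAG peptide for trypsin digestion and Orbitrap LC-MS; hits needed ≥2 PSMs in both experiments, ranked by total PSMs.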

| Molecule | 3. + IFNg + Dox longCTD (bait longCTD) | SUM of PSMS | 4. longCTD + Dox + IFNG (LC-MS counts of the listed protein co-immunoprecipitated with DUX4-CTD bait longCTD, experiment 4, Dox + IFNG) | 3. + Dox longCTD (bait longCTD, experiment 3, Dox only) |
| --- | --- | --- | --- | --- |
| Q3SY84 (protein, UniProt Q3SY84 1-523, looked up, full-length) MSRQFTCKSGAAAKGGFSGCSAVLSGGSSSSFRAGSKGLSGGFGSRSLYSLGGVRSLNVASGSGKSGGYGFGRGRASGFAGSMFGSVALGPVCPTVCPPGGIHQVTVNESLLAPLNVELDPEIQKVRAQEREQIKALNNKFASFIDKVRFLEQQNQVLETKWELLQQLDLNNCKNNLEPILEGYISNLRKQLETLSGDRVRLDSELRNVRDVVEDYKKRYEEEINKRTAAENEFVLLKKDVDAAYANKVELQAKVESMDQEIKFFRCLFEAEITQIQSHISDMSVILSMDNNRNLDLDSIIDEVRTQYEEIALKSKAEAEALYQTKFQELQLAAGRHGDDLKNTKNEISELTRLIQRIRSEIENVKKQASNLETAIADAEQRGDNALKDARAKLDELEGALHQAKEELARMLREYQELMSLKLALDMEIATYRKLLESEECRMSGEFPSPVSISIISSTSGGSVYGFRPSMVSGGYVANSSNCISGVCSVRGGEGRSRGSANDYKDTLGKGSSLSAPSKKTSR | 9 | 30 |  |  |
| P68366 (protein, UniProt P68366 1-448, looked up, full-length) MRECISVHVGQAGVQMGNACWELYCLEHGIQPDGQMPSDKTIGGGDDSFTTFFCETGAGKHVPRAVFVDLEPTVIDEIRNGPYRQLFHPEQLITGKEDAANNYARGHYTIGKEIIDPVLDRIRKLSDQCTGLQGFLVFHSFGGGTGSGFTSLLMERLSVDYGKKSKLEFSIYPAPQVSTAVVEPYNSILTTHTTLEHSDCAFMVDNEAIYDICRRNLDIERPTYTNLNRLISQIVSSITASLRFDGALNVDLTEFQTNLVPYPRIHFPLATYAPVISAEKAYHEQLSVAEITNACFEPANQMVKCDPRHGKYMACCLLYRGDVVPKDVNAAIAAIKTKRSIQFVDWCPTGFKVGINYQPPTVVPGGDLAKVQRAVCMLSNTTAIAEAWARLDHKFDLMYAKRAFVHWYVGEGMEEGEFSEAREDMAALEKDYEEVGIDSYEDEDEGEE | 39 | 69 | 16 | 14 |
